Molecular target: human SK2 isoform hSK2A+ (small-conductance calcium-activated potassium channel protein), stably exp (human), Q9H2S1
Test: cell-based or functional assay

Sequence of human SK2 isoform hSK2A+ (small-conductance calcium-activated potassium channel protein), stably exp (human), Q9H2S1 (Q9H2S1 other isoform, or with tags, fused parts or gaps): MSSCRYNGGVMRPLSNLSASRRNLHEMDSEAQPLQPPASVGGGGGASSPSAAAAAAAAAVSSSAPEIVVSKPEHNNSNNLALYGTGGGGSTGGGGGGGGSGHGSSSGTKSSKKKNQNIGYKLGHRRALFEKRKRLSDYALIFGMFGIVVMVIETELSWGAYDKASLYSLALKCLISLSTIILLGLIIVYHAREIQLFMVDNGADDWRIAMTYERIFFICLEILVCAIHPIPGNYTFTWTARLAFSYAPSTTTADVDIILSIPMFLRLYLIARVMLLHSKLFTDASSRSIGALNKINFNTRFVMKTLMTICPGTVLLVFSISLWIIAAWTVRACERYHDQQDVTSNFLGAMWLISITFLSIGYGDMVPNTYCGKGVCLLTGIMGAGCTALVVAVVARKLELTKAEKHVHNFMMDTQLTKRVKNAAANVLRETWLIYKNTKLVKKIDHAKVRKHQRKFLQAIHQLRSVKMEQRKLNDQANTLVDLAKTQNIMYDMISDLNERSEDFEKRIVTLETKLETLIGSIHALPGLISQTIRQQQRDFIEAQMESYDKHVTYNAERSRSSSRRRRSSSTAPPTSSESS

## AFCNLRMCQLSCRSLGLLGKCIGDKCECVKH (modifications not checked) [scyllatoxin, P16341 1-31]
  magnitude of the ATP/Tg induced decrease in fluorescence; concentration printed as 'tested at' (FIG. 9 concentration series): 1.1 nM
